In US6645501B2, “Anti-pathogen system and methods of use thereof” (Washington University, priority 1997, dated 2003):
Entries after “also recorded” stand apart in the source; their conditions may differ.

B1: TAT-Casp3MUT: catalytically inactive TAT-Casp3 with Met substituted for the active site Cys163 residue (protein)
chain: GRKKRRQRRRGYPYDVPDYACTERQANFLGKIWPGISLDNSYKMDYPEMGLCIIINNKNFHKSTGMTSRSGTDVDAANLRETFRNLKYEVRNKNDLTREEIVELMRDVSKEDHSKRSSFVCVLLSHGEEGIIFGTNGPVDLKKITNFFRGDRCRSLTGKPKLFIIQAMRGTELDCGIETSQVSQNYPIVQNLQGVDDDMACHKIPVEADFLYAYSTAPGYYSWRNSKDGSWFIQSLCAMLKQYADKLEFMHILTRVNRKVATEFESFSFDATFHAKKQIPCIVSMLTKELYFYH
modifications: left off: small tags and cut ends

Legend:
Jurkat T cells [1] = assay: FACS and confocal analysis of FITC-labeled TAT fusion proteins added to Jurkat T cells; format: cell-based; settings: FITC-labeled protein added to media of Jurkat T cells
Experimental: To test the ability of TAT-Casp3 proteins to transduce into cells, TAT-Casp3 proteins were conjugated to fluorescein (FITC), then added directly to the media of Jurkat T cells and analyzed by Flow Cytometry (FACS) (FIGS. 9B-C). Both TAT-Casp3WT and TAT-Casp3MUT proteins rancidly transduced into ˜100% of cells, achieving maximum intracellular concentration in less than 20 min. In addition, based on the narrow peak width before and after addition of FITC labeled proteins, individual cells within the population contain near identical intracellular concentrations of TAT-Casp3-FITC protein. […] Thus, TAT-Casp3 proteins readily transduce into 100% of all cells inca rapid and concentration-dependent fashion.
The generation and transduction of TAT fusion proteins shown in FIGS. 9A-E are explained in more detail as follows: FIG. 9A. Diagram depicting HIV cleavage site sequences and domains of TAT fusion proteins. FIGS. 9B-D. FACS kinetic analysis of fluorescein (FITC) labeled TAT-Casp3WT, TAT-Casp3MUT and TAT-HIV Pr proteins added to cells at 0, 20 and 30 min. FIG. 9E. FACS dose analysis of 3, 6, and 12 nM TAT-Casp3WT-FITC protein added to cells at I hr post-addition. Note rapid, concentration-dependent transduction of all FITC labeled protein into ˜100% of cells and near identical intracellular concentration within the population as measured by FACS peak width of control vs. transduced cells.
(§1) 1. […] See Lissy, N. A., et al. (supra). […] See Ezhevsky, S. A., et al. (supra). […] See Xiang, J., et al., (supra). […] See Xiang, J., et al., (supra). […] See Ezhevsky, S. A., et al. (supra).

Jurkat T cells [2] = assay: Cytotoxicity of TAT-Casp3 on uninfected Jurkat T cells, viability by Trypan Blue exclusion; settings: 100 nM TAT-Casp3 or 50 nM TAT-HIV Pr, uninfected Jurkat T cells, 16 hr
Experimental: In addition, the ability of TAT-Casp3 protein to induce apoptosis in cells co-transduced with TAT-HIV Pr protein was tested. Jurkat T cells were treated with 100 nM TAT-Casp3WT or TATCasp3MUT proteins alone or in combination with 50 nM TAT-HIV Pr protein and assayed for cell viability 16 hr post-treatment (FIG. 11A). […] See Salvensen, G. S., et al., Henkart, P. A., Cohen, G. M., Woo, M., et al., Enari, M. et al., Liu, X., et al. (supra).
FIG. 11A Cultures of Jurkat T cells were transduced with combinations of TAT-Casp3WT (WT), TAT-Casp3MUT (MUT) and TAT-HIV Protease (Pr) proteins for 16 hr and analyzed for cell viability. […] FIG. 11B Cultures of Jurkat T cells were co-transduced with TAT-Casp3WT (WT), TAT-Casp3MUT (MUT) proteins in combination with TAT-HIV Pr (Pr) protein and analyzed for kinetics of cell viability as indicated.
1. Cell culture-p16(−) Jurkat T cells (ATCC) were grown as described. See Lissy, N. A., et al. (supra). For in vivo substrate cleavage, 1×10^6 cells were transduced with 100 nM TAT-p16, TAT-A-p16, TAT-Casp3MUT and/or 50 nM TAT-HIV Pr proteins for 1, 5 or 8 hr as indicated and analyzed by anti-p16 (Santa Cruz) or anti-Casp3 (Pharmingen) immunoblot analysis. See Ezhevsky, S. A., et al. (supra). For cytotoxicity of TAT-Casp3 on uninfected cells, 1×10^6 cells were transduced with 100 nM TAT-Casp3WT, TAT-Casp3MUT and/or 50 nM TAT-HIV Pr proteins for 16 hr and assayed for viability by Trypan Blue exclusion and/or genomic DNA damage by TUNEL assay (Trevigen). Number of TUNEL positive cells reported as per high-powered microscopic field with four fields per experiment averaged. TAT-Casp3 activity was measured by incubation of 20 μg of whole cell lysate with 50 μM DEVD-AFC and fluorescent AFC formation measured on a FL500 microplate fluorescence reader (Bio-Tek) as described. See Xiang, J., et al., (supra). Cells were preincubated with 1 μg/ml Ritonavir (Abbott Labs) for 1 hr prior to transduction. For cytotoxicity of TAT-Casp3 on infected cells, Jurkat cultures were infected with 100 ng p24 Ag equivalent NLHX HIV-I strain for 7-14 days, assayed microscopically for cytopathic effects, then replated at 1×10^6/ml and transduced with 100 nM of TAT-Casp3WT or TAT-Casp3MUT proteins for 16 hr followed by exclusionary dye viability analysis. Infected cells were pretreated with 1 μg/ml Ritonavir for 24 hr prior to transduction with TAT-Casp3WT protein. See Xiang, J., et al., (supra). For Flow Cytometry (FACS) analysis, fluorescein (FITC) conjugated TAT fusion proteins were added to Jurkat T cell culture media and 1×10^4 cells were analyzed by FACS as described. See Ezhevsky, S. A., et al. (supra).

Jurkat T cells [3] = assay: TUNEL assay for degraded genomic DNA in transduced Jurkat T cells; format: cell-based; settings: for TUNEL positive cells, protein transduced alone: 100 nM TAT-Casp3 or 50 nM TAT-HIV Pr
Experimental: (§2) Additionally, transduced cultures were tested for degraded genomic DNA by TUNEL assay. See Coates, P. J., Molecular methods for the identification of apoptosis in tissues. J. Histotechnology 17: 261 (1994). […] Activation of TAT-Casp3 was also assayed by its ability to cleave an artificial Caspase-3 substrate. […] See Xiang, J., et al., Bax-induced cell death may not require interleukin 1B-converting enzyme-like proteases. Proc. Natl. Acad. Sci. USA 93: 14550 (1996).
(§3) The HIV Protease activates TAT-Casp3WT protein shown in FIGS. 12A-B are explained in more detail as follows. FIG. 12A. […] Abscissa: TUNEL positive cells per high-powered microscopic field; Ctrl, control addition of PBS to cultures; error bars represent SD. FIG. 12B. […] Ctrl, control PBS addition; ocFAS crosslinking, positive control.
as §1

[4] = tested on: caspase-3 activity (DEVD-AFC cleavage); assay: Caspase-3 enzyme assay, cleavage of DEVD-AFC by whole cell lysate of transduced Jurkat T cells; format: cell-based; settings: 6 hr
Experimental: as §2, §3, §1

HIV Protease = target: T1, HIV Protease (Human immunodeficiency virus type 1 group M subtype B, UniProt P04585); assay: In vivo substrate cleavage by co-transduced TAT-HIV Pr in Jurkat T cells, immunoblot; format: cell-based; settings: 100 nM substrate, 50 nM TAT-HIV Pr, Jurkat T cells, immunoblot
T1 construct: PCR cloning the HIV Protease gene from HXB2R HIV strain; 6xHis (from the pTAT vector) (N); made in house; the purified protein was added to Jurkat T cells
Experimental: To assay for in vivo cleavage, p 16(−) Jurkat T cells were transduced with 100 nM TAT-Ap16 or control TAT-p16 protein (no HIV cleavage site) alone or in combination with 50 nM TATHIV Pr fusion protein for 5 hr and analyzed by anti-p16 immunoblot for in vivo cleavage at the HIV A proteolytic cleavage site (FIG. 10A). […] Size analysis of the cleaved TAT-A-p 16 protein was consistent with retention of the residual HIV half site present on the N′ terminus of p 16 (FIG. 10A, see lane 4 vs. 5).
Further, the TAT-Casp3MUT protein was transduced in combination with TAT-HIV Pr protein into cells (FIG. 10B).
The in vivo processing in co-transduced cells shown in FIGS. 10A and 10B is explained in more detail as follows. FIG. 10A. Cultures of p16(−) Jurkat T cells were transduced with TAT-p 16 or TAT-A-p 16 substrate proteins in combination with TATHIV Pr proteins for 5 hr and subjected to anti-p 16 immunoblot analysis. […] WCE, HepG2 whole cell lysate containing wild type endogenous p16; A-p16, cleaved TAT-A-16 product retaining the HIV half site on p16. FIG. 10B. Cultures of Jurkat T cells were transduced with TATCasp3MUT protein (TAT-“D” site-p 17 domain-“A” site-p12 domain) alone or in combination with TAT-HIV Pr (Pr) protein as indicated and immunoblotted with anti-Caspase-3 antibodies specific for the p17 domain. TAT-D-p17-A, cleaved product of TAT-Casp3 containing the N′ terminal HIV A half site.
as §1

[5] = tested on: Jurkat T cells infected with the NLHX strain of HIV-I; assay: Cytotoxicity of TAT-Casp3 on HIV infected Jurkat cultures, exclusionary dye viability analysis; format: cell-based; settings: 100 nM, 16 hr, cultures approximately 50% HIV positive
Text: To make this determination, Jurkat T cells were infected for 7-14 days with the NLHX strain of HIV-I and examined microscopically for HIV cytopathic effects. See Westervelt, P., et al., Identification of a determinant within the HIV-1 surface envelope glycoprotein critical for productive infection of cultured primary monocytes. Proc. Natl. Acad. Sci USA 88: 3097 (1991). At the start of each transduction experiment approximately 50% of the culture was HIV positive. HIV infected cultures were transduced for 16 hr with 100 nM TAT-Casp3WT or TATCasp3MUT protein and then assayed for cell viability (FIG. 13). […] In addition, we detected both the appearance of cells containing <2N DNA content and cells with condensed nuclei in TAT-Casp3 treated cells.
To determine if TAT-Casp3WT induced apoptosis was dependent on active HIV Protease in the infected cultures, HIV infected cultures were pretreated with 1 μg/ml Ritonavir prior to transduction with 100 nM TAT-Casp3WT protein (FIG. 5). […] In addition, the observed increased survival of Ritonavir treated cells is consistent with increased longevity of protease inhibitor treated HIV infected cells. See Coffin, J. M., et al. (supra).
The specific killing of HIV infected cells shown in FIG. 5 is explained in more detail as follows. Jurkat T cells were infected for 7-14 days with HIV strain NLHX, then transduced with TAT-Casp3WT (WT) or TAT-Casp3MUT (MUT) proteins for 16 hr and assayed for cell viability. […] Ctrl, control addition of PBS to cultures; abscissa, % viability of HIV positive cells in the population at start of transduction; error bars represent SD.
as §1

| Molecule | cells transduced (Jurkat T cells [1]) | cytotoxicity when transduced alone (Jurkat T cells [2]) | TUNEL positive cells, protein transduced alone (Jurkat T cells [3]) | caspase activity, protein transduced alone [4] | cleavage at the HIV cleavage site when co-transduced with TAT-HIV Pr (HIV Protease) | TUNEL positive cells, co-transduced with TAT-HIV Pr (Jurkat T cells [3]; 100 nM plus 50 nM TAT-HIV Pr) | effect on viability of HIV positive cells [5] | effect on viability of HIV positive cells ([5]; listed as TATCasp3MUT) |
| --- | --- | --- | --- | --- | --- | --- | --- | --- |
| TAT-HIV Pr: transducible HIV Protease, gene from HXB2R HIV strain cloned into pTAT | 100% | absence | only background levels; also recorded: remained at background levels | only background levels |  |  |  |  |
| B1 | ~100% |  | only background levels; also recorded: remained at background levels | only background levels | specific cleavage | only background; also recorded: remained at background levels | no effect | negligible effects |
